In patent publication US8227408B2, “Leptin as an anti-amyloidogenic biologic and methods for delaying the onset and reducing Alzheimer's disease-like pathology” (Neurotez, Inc., priority 2005, dated 2012):

System: BACE
Assay: BACE activity, APP and flotillin in sucrose gradient fractions of treated SY5Y cells (fluorescence quenching assay)
Format: cell-based, human
Description: In panel (a), Neuro2a cells stably transfected with hyg-sa134 were treated for about 2 h or about 5 h with about 100 ng/ml leptin, Ob (black); about 125 mg/ml cyclodextrin, CDX (striped gray); about 5 mg/ml cholesterol, Ch (pale gray); and leptin plus cholesterol, Ob+Ch (medium gray). Media were collected and assayed for total Aβ by ELISAs (Figueiredo-Pereira et al., J Neurochem. 72:1417-22 (1999)). […] Water soluble cholesterol (Sigma-Aldrich, Mo.) is a solution made of cholesterol balanced with CDX (40 mg cholesterol per gr CDX). […] Extracts prepared from harvested cells were analysed by SDS-PAGE and Western blotting using an antibody directed against the C-terminal fraction of APP (C-APP, lanes 1-4) or actin (top lanes 5-8) or full-length APP (bottom lanes 5-8). […] Fractions collected from the bottom of the gradient were analysed by SDS-PAGE and Western blotting for the detection of APP and flotillin (marker for lipid rafts). […] In panel (e), fractions collected as above were assayed for β-secretase activity using a fluorescence-quenching assay (QTL Biosystems, NM). The results are expressed as the percent distribution of BACE activity within the gradient derived from cell cultures in the absence (black) or presence (gray) of leptin in the medium. […]

B1: Leptin: peptide hormone controlling adaptive metabolic mechanisms to energy availability; leptin (Harbor-UCLA) in vitro, recombinant murine leptin in mice (protein, UniProt P41160 22-167, looked up)
Leptin: VPIQKVQDDTKTLIKTIVTRINDISHTQSVSAKQRVTGLDFIPGLHPILSLSKMDQTLAVYQQVLTSLPSQNVLQIANDLENLRDLLHLLAFSKSCSLPQTSGLQKPESLDGVLEASLYSTEVVALSRLQGSLQDILQQLDVSPEC
- activity of BACE in the low density fractions (about 400 ng/ml leptin, about 5 h, sucrose gradient fractions): almost absent
- flotillin migration / elution position on sucrose gradient (compared to controls): migrated at heavier subcellular fractions
